Results taken from paper PMC7234810 (2020).

Assays:
[1] = biological target: HpBARI expressed with C-terminal tags (Heligmosomoides polygyrus); experiment: SPR
[2] = biological target: H. polygyrus Binds Alarmin Receptor and Inhibits (HpBARI), N-terminal tagged (Heligmosomoides polygyrus); experiment: SPR

B1: Mouse IL-33-TRAP-Fc (a fusion protein of ST2 and IL-1RAcP with an Fc tag) (Fc fusion)
chain: SKSSWGLENEALIVRCPQRGRSTYPVEWYYSDTNESIPTQKRNRIFVSRDRLKFLPARVEDSGIYACVIRSPNLNKTGYLNVTIHKKPPSCNIPDYLMYSTVRGSDKNFKITCPTIDLYNWTAPVQWFKNCKALQEPRFRAHRSYLFIDNVTHDDEGDYTCQFTHAENGTNYIVTATRSFTVEEKGFSMFPVITNPPYNHTMEVEIGKPASIACSACFGKGSHFLADVLWQINKTVVGNFGEARIQEEEGRNESSSNDMDCLTSVLRITGVTEKDLSLEYDCLALNLHGMIRHTIRLRRKQPIDHRSERCDDWGLDTMRQIQVFEDEPARIKCPLFEHFLKYNYSTAHSSGLTLIWYWTRQDRDLEEPINFRLPENRISKEKDVLWFRPTLLNDTGNYTCMLRNTTYCSKVAFPLEVVQKDSCFNSAMRFPVHKMYIEHGIHKITCPNVDGYFPSSVKPSVTWYKGCTEIVDFHNVLPEGMNLSFFIPLVSNNGNYTCVVTYPENGRLFHLTRTVTVKVVGSPKDALPPQIYSPNDRVVYEKEPGEELVIPCKVYFSFIMDSHNEVWWTIDGKKPDDVTVDITINESVSYSSTEDETRTQILSIKKVTPEDLRRNYVCHARNTKGEAEQAAKVKQKVIPPRYTVELACGFGAT
[1]
  koff: ~0.13 s⁻¹
[2]
  koff: ~0.04 s⁻¹
